This note sets out measurements from US20260028415A1 (FULL LIFE TECHNOLOGIES HK, published 2026).

Numbering of substitutions follows the chain as printed.

Sequences and labels used below:
T1: human CEACAM5 expressed on MKN45 cells (human, UniProt P06731 35-685)
T1 sequence: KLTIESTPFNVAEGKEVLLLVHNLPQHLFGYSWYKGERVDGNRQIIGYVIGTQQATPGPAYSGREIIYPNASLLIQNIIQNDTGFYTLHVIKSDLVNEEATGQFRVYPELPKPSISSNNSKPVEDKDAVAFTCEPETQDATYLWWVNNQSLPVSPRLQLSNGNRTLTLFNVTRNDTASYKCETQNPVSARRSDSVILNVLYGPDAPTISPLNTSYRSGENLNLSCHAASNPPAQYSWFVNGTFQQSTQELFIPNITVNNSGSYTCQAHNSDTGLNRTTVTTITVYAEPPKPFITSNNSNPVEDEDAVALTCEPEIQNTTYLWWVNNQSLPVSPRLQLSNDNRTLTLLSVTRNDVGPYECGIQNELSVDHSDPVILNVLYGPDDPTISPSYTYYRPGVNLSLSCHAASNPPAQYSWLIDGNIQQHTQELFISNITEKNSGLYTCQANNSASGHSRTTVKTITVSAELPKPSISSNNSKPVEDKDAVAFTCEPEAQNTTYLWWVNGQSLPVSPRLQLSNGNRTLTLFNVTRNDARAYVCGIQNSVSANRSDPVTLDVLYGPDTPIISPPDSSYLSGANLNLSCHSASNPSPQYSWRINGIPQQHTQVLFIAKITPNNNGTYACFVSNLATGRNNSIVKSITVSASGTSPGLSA

T2: Human CEACAM5 A3B3 domain (human, UniProt P06731 499-685)
T2 construct: also called human A3B3 domain; not shown: The human Fc part (and any linker) implied by capture on an anti-human Fc antibody chip
T2 sequence: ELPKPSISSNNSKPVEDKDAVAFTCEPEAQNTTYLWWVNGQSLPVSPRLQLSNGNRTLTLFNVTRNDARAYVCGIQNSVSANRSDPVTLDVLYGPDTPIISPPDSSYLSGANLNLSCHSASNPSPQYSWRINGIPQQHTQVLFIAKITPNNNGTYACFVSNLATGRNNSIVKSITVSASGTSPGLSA

B1: anti-CEACAM5 single domain antibody of SEQ ID NO: 5 (VHH)
VHH: EVDLVESGGGLVQAGGSLRLSCAPSGRTSSLDTMAWFRQAPGKEREFVASTNWNRGGASYADSVKGRFTISRDATKNTVYLQINSLEPEDTAVYYCAASTRGIVSDNYWGQGTQVTVSS
notes: tags or Fc in the assays are not described
B2: anti-CEACAM5 single domain antibody of SEQ ID NO: 1 (VHH)
VHH: EVQLVESGGGLVQAGGSLRLSCVASTRIAGMGWYRAPPGKGRELVASISEEGTTTYAVPVEGRFTVSRDNVKNMLHLQMNSLKPEDTAMYYCVARRTFPSVVEGVDYWGQGTQVTVSS
notes: Alpaca sdAb clone expressed in E. coli
B3: anti-CEACAM5 single domain antibody of SEQ ID NO: 10 (VHH)
VHH: EVDLMESGGGLVQPGGSLRLSCTASGDTLDYYAIDWFRQAPGKEREGVSCISSRGGTTNYADAVKGRFTISRDNAKNTVYLQMNSLRPEDTAVYYCAAEFTGWAVCNFSRKSGEYDYWGQGTQVTVSS
notes: as for B1
B4: anti-CEACAM5 single domain antibody of SEQ ID NO: 9 (VHH)
VHH: QVQLVESGGGLVQPGESLRLSCAASGFTFSSYAMSWVRQPPGKGIEWVAEIDSGGDRTDYAVPVKGRFTISRDNVENTLYLQMNSLKPEDTAVFYCAKGTHADFGSWGQGTLVTVSS
notes: as for B1
B5: anti-CEACAM5 single domain antibody of SEQ ID NO: 6 (VHH)
VHH: EVQLVESGGGLVQPGGSLRLSCAASRGTFSRLDMGWFRQAPGKEREFVASSTWSGGTAYATDSVKTRFTISRDSAKTTVYLQMNSLRPEDTAVYYCAAGLSLEQHTPPYWGQGTQVTVSS
notes: as for B1
B6: anti-CEACAM5 single domain antibody of SEQ ID NO: 2 (VHH)
VHH: QLQLVESGGGLVQPGGSLRLSCAVSGDRWDYYAIGWIRQAPGKEREGVSCISSSGRTTNYADSVKGRFTISRDNAKNTVYLQMNSLKPEDTAVYYCSTEFTGWDRCGFDEYDHRGQGTQVTVSS
notes: as for B1
B7: anti-CEACAM5 single domain antibody of SEQ ID NO: 8 (VHH)
VHH: AVQLVESGGGLVQAGGSLRLSCAASGRTFSSYWLGWFRQVPGEEREFVAAISWSGSGVVTNYADSVKGRFTISRDDGNNALYLQMSNLNPEDTAVYYCAARLGTYYKDYARSGAYDTWGQGTQVTVSS
notes: as for B1
B8: anti-CEACAM5 single domain antibody of SEQ ID NO: 4 (VHH)
VHH: B4 VHH with Q1E, T28S, K43M, D56G, R57S, E76K, L112Q
notes: as for B1
B9: anti-CEACAM5 single domain antibody of SEQ ID NO: 7 (VHH)
VHH: EVQLVESGGGLVQAGGSLRLSCAASGRTFSRDVMGWFRQAPGKEREFVAVINWTDSTYYLDSVKGRFTISRENAENTVYLQMNSLKPEDTAIYYCATGIGGLYRRPSAYKYWGQGTQVTVSS
notes: as for B1
B10: anti-CEACAM5 single domain antibody of SEQ ID NO: 3 (VHH)
VHH: EVDLVESGGGLVQPGGSLRLSCAASGFTFSSYYMSWVRQPPGKGIEWVSEISSGGGSTNYAVPVEGRFTISRDNAKNTLSLQMNSLKPEDTALYYCARGSHADFNSWGQGTQVTVSS
notes: as for B1

One test concerns the target T1, human CEACAM5 expressed on MKN45 cells. The test is described as follows: cell-based or functional assay.
For the molecule B1, the “EC50 (read off the curve), internalization by pHrodo” value (from here on “EC50 (read off the curve)”) is approximately 20 nM.

Regarding B2, the “EC50 (read off the curve)” value was approximately 20 nM.

On to B3, for which the “EC50 (read off the curve)” value was approximately 20 nM.

For B4, the “EC50 (read off the curve)” value lay in the range of 25 to 30 nM.

The target is the same in the next test. The test can be described thus: flow cytometry on MKN45 cells, 300 nm [sic], PE-anti human Fc secondary; negative control. (In general: Flow cytometry measures light scatter and fluorescence of single cells or particles in a stream.)
Human IgG1 isotype (antibody) registered a Geometric mean MFI of 12.9 MFI.

Another test has the same target. The test can be described thus: flow cytometry on MKN45 cells, sdAb at 300 nm as printed, PE-anti human Fc secondary.
For B5, the “Geometric mean MFI” value was 647 MFI.

Consider B1, for which the “Geometric mean MFI” value came to 292 MFI.

B6: the “Geometric mean MFI” value is 565 MFI.

For B2, the “Geometric mean MFI” value was 292 MFI.

For the molecule B7, the “Geometric mean MFI” value was 636 MFI.

Regarding B8, the “Geometric mean MFI” value was 394 MFI.

With B4, the “Geometric mean MFI” value was found to be 382 MFI.

The target in a further test is T2, Human CEACAM5 A3B3 domain. The test is described as follows: SPR (Biacore T200), A3B3 domain captured on anti-human Fc CM5 chip, sdAb injected, 1:1 Langmuir. In general terms: Surface plasmon resonance follows binding to a sensor surface in real time, without labels.
As usually defined, the Kd is the free concentration of one partner at which half of the binding sites on the other are occupied at equilibrium, for simple one-to-one binding. High values mean weaker binding, low ones tighter binding. As a reminder, the koff is the rate constant with which the complex falls apart. High values mean fast dissociation, low ones slow dissociation. What is called kon is the second-order rate constant of association. High values mean faster complex formation, low ones slower complex formation. Consider B5, for which the Kd was determined as 7.77 nM, the koff came to 0.00126 s⁻¹ and the kon is 162000 M⁻¹ s⁻¹.

B1 yielded a dissociation constant Kd of 9.74 nM, a koff of 0.00208 s⁻¹ and a kon of 214000 M⁻¹ s⁻¹.

As for B6, the affinity, expressed as Kd, was 0.533 nM; the koff stood at 0.000997 s⁻¹; the kon was found to be 1.87e+06 M⁻¹ s⁻¹.

In turn, B2 registered a Kd of 0.362 nM, a koff of 4.46e-05 s⁻¹ and a kon of 123000 M⁻¹ s⁻¹.

For B3, binding was characterised by a dissociation constant (Kd) of 48.9 nM, the koff is 0.0137 s⁻¹ and the kon was 280000 M⁻¹ s⁻¹.

Molecule B7 gave a Kd of 19.1 nM, a koff of 0.00243 s⁻¹ and a kon of 127000 M⁻¹ s⁻¹.

In the case of B9, the Kd came out at 19 nM, the koff was 0.013 s⁻¹ and the on-rate constant (kon) amounted to 688000 M⁻¹ s⁻¹.

B8 displayed a Kd of 2 nM, a koff of 0.000311 s⁻¹ and a kon of 155000 M⁻¹ s⁻¹.

The molecule B4 had a Kd of 0.732 nM.

With B10, the affinity, expressed as Kd, was 7.74 nM; the koff stood at 0.0032 s⁻¹; the kon was 414000 M⁻¹ s⁻¹.
